Residue numbers refer to the chain shown, from its start. Names and notes keep the numbering of the source.

3 molecules from PMC3268813 (Scientific Reports, 2012) can be followed below.

Data set [1] has as its target T1, GST-tagged chicken CK2α kinase dead (K68A mutant) (chicken, UniProt P21868 1-391, K68A).
T1 sequence: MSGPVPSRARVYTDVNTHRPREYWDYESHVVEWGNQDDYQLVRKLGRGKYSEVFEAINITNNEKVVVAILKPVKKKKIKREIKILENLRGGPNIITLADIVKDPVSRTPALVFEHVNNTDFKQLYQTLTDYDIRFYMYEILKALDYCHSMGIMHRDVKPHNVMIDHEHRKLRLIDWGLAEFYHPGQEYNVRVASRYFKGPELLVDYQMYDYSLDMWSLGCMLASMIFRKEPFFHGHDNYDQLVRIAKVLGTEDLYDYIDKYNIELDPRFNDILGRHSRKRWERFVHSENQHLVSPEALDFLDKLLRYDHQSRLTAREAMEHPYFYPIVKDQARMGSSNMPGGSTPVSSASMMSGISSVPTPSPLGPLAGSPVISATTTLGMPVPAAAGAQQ
Nature of the data set: pull-down.

The target in the next data set is T2, GST-tagged chicken CK2α (chicken, UniProt P21868 1-391).
T2 sequence: T1 sequence with A68K
The data set can be described thus: pull-down.

The data set “SEC” concerns the molecule itself. The data set can be described thus: SEC. In general terms: In gel filtration, larger molecules generally elute earlier.

B1: CRN2 wild-type C-terminal polypeptide (aa300-474), His6-tagged (domain or fragment)
chain: PYVHYLNTFSSKEPQRGMGYMPKRGLDVNKCEIARFFKLHERKCEPIIMTVPRKSDLFQDDLYPDTAGPEAALEAEEWFEGKNADPILISLKHGYIPGKNRDLKVVKKNILDSKPTANKKCDLISIPKKTTDTASVQNEAKLDEILKEIKSIKDTICNQDERISKLEQQMAKIAA
As to B1, the binding result (in data set [1]; with GST-tagged chicken CK2α) was “binds” in each case. Besides, in “SEC”, the stoichiometry N (usually a count of units in the complex or per binding partner) came out at 3.

B2: CRN2 S463A phospho-resistant C-terminal polypeptide (aa300-474), His6-tagged (domain or fragment)
chain: B1 chain with S164A
For B2, the “stoichiometry N” value in “SEC” was 3.

B3: CRN2 S463D phosphomimetic C-terminal polypeptide (aa300-474), His6-tagged (domain or fragment)
chain: B1 chain with S164D
For the molecule B3, the binding result (in data set [1]; with GST-tagged chicken CK2α) was “binds” throughout. In addition, the “stoichiometry N” value in the data set “SEC” came out at 3.
